Results: publication PMC8690919 (Theranostics, 2022)

What follows are binders tested against T1, SARS-CoV-2 receptor-binding domain (RBD), His-tagged (SARS-CoV-2, UniProt P0DTC2) (assay: crystal structure). Conditions: both partners purified.
T1 construct: also called viral RBD; His-tagged RBD

| Binder | binding result |
| --- | --- |
| FI-3A Fab (Fab, V domains shown) VH: EVQLLESGGGLIQPGGSLRLSCAASGFTVSSNYMSWVRQAPGKGLEWVSVIYSGGSTYYADSVKGRFTISRDNSKNTLYLQMNSLRAEDTAVYYCARDHVRPGMNIWGQGTMVTVSS VL: not shown | binds |
| FD-5D Fab (Fab, V domains shown) VH: EVQLVESGGGLVQPGGSLRLSCAASGFTFSSYSMNWVRQAPGKGLEWVSYISSSSSTIYYADSVKGRFTISRDNAKNSLYLQMNSLRAEDTAVYYCASPGGITAAGTSVLFGYYGMDVWGQGTTVTVSS VL: not shown | binds |
| FD-11A Fab (Fab, V domains shown) VH: EVQLVESGGGVVQPGRSLRLSCAASGFTFSSYGMHWVRQAPGKGLEWVAVIWYDGSNKYYADSVKGRFTISRDNSKNTLYLQMNSLRAEDTAVYYCAKGPDILTGYYNYYYYGMDVWGQGTMVTVSS VL: QSVLTQPPSVSGAPGQRVTISCTGSSSNIGAGYDVHWYQQLPGTAPKLLIYGNSNRPSGVPDRFSGSKSGTSASLAITGLQAEDEADYYCQSYDSSLSGFYVVFGGGTKLTVL | binds |
